The numbers were not newly measured in PMC5725453, which cites them from elsewhere.

This series addresses PI4KB (Homo sapiens) (UniProt Q9UBF8).
Sequence of UniProt Q9UBF8 (Q9UBF8 2-816): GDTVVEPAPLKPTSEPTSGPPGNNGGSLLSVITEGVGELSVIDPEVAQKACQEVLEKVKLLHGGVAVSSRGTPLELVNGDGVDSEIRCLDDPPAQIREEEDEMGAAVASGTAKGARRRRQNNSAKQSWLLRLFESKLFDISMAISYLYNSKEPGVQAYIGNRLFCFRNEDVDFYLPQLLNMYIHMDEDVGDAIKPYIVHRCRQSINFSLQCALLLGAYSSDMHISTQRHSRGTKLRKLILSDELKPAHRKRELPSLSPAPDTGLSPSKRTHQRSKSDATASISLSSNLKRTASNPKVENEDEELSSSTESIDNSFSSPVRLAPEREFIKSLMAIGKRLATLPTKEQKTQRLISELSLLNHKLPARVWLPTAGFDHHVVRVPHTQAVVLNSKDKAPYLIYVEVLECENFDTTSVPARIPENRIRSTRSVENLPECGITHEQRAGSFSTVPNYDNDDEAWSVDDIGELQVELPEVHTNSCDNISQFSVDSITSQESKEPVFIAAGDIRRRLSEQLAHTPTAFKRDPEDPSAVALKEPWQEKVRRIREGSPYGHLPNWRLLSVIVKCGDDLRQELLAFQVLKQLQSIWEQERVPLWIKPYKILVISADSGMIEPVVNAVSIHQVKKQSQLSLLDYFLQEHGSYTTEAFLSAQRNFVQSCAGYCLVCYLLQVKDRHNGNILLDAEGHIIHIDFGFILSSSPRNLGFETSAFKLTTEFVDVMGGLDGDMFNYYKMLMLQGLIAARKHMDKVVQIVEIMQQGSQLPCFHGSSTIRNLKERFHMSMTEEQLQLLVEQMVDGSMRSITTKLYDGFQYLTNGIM

The term Kd denotes the equilibrium constant for the complex coming apart. Regarding ACBD3 (from UniProt Q9H3P7), the Kd is 320 nM.
